Here are results for 78 sequences from the supplement of paper PMC7877785.

± gives the uncertainty stated by the source.

The series in a line: self-splicing fitness, log relative to wild type (ln ratio); higher = more splicing; Tetrahymena group I intron in knt gene, E. coli kanamycin selection, DiMSum; sequences stand for … in CUCUCU…GGAGGGAAAAGUUAUCAGGCAUGCACCUGGUAGCUAGUCUUUAAACCAAUAGAUUGCAUCGGUUUAAAAGGCAAGACCGUCAAAUUGCGGGAAAGGGGUCAACAGCCGUUCAGUACCAAGUCUCAGGGGAAACUUUGAGAUGGCCUUGCAAAGGGUAUGGUAAUAAGCUGACGGACAUGGUCCUAACCACGCAGCCAAGUCCUAAGUCAACAGAUCUUCUGUUGAUAUGGAUGCAGUUCACAGACUAAAUGUCGGUCGGGGAAGAUGUAUUCUUCUCAUAAGAUAUAGUCGGACCUCUCCUUAAUGGGAGCUAGCGGAUGAAGUGAUGCAACACUGGAGCCGCUGGGAACUAAUUUGUAUGCGAAAGUAUAUUGAUUAGUUUUGGAGUACUCGUGGUCG
An outline of the steps:
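DiMSum derived fitness as the error-weighted combination of fold changes across replicates, kanamycin versus no kanamycin, normalised to wild type. E. coli BL21(DE3) held the library, which randomised all eight P1ex-region intron nucleotides within the knt kanamycin-resistance gene on pET-22b(+). Six replicate transformations grew overnight at 37°C or 30°C on LB agar with or without 25 μg/mL kanamycin, also containing 100 μg/mL carbenicillin, 50 μM IPTG and 0.2% rhamnose, and pooled colonies were amplicon-sequenced on an Illumina HiSeq 2500.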

On to GUGAAGCAAUAUUACGUGUA, for which the “self-splicing fitness (ln)” value reads like this: (30 °C) -1.11 ± 0.069; (37 °C) -0.878 ± 0.087.
In the same order, the values of CAACAGCAAUAUUACGUUGU are -4.21 ± 0.18 and -3.06 ± 0.16.
As for GAGUAGCAAUAUUACGUAGU, the “self-splicing fitness (ln)” value reads like this: (30 °C) -4.34 ± 0.31; (37 °C) -2.68 ± 0.2.
In the case of UUGUAGCAAUAUUACGGAGA, under “37 °C”, the “self-splicing fitness (ln)” value was -2.21 ± 0.42.
As for CGGAAGCAAUAUUACGUCUC, the “self-splicing fitness (ln)” value (30 °C) is -4.07 ± 0.39 and the “self-splicing fitness (ln)” value (37 °C) was -2.3 ± 0.19.
With CUGUAGCAAUAUUACGACAA, the “self-splicing fitness (ln)” value was -0.568 ± 0.11 (30 °C) and 0.0313 ± 0.11 (37 °C).
Turning to GUUCAGCAAUAUUACGCGGC, where the note is “37 °C”, the “self-splicing fitness (ln)” value was -2.94 ± 0.43.
In the case of GACAAGCAAUAUUACGUUGG, the “self-splicing fitness (ln)” value runs as follows: (30 °C) -3.26 ± 0.11; (37 °C) -2.56 ± 0.14.
For UUCUAGCAAUAUUACGGUGC, the “self-splicing fitness (ln)” value (30 °C) was -2.46 ± 0.4 and the “self-splicing fitness (ln)” value (37 °C) is -2.96 ± 0.38.
For CCUCAGCAAUAUUACGUGUG, in that order: -1.4 ± 0.061 and -0.812 ± 0.062.
In the same order, the values of CGUAAGCAAUAUUACGAUAG are -1.72 ± 0.093 and -0.661 ± 0.11.
For AACGAGCAAUAUUACGUUUA, in that order: -3.12 ± 0.2 and -2.64 ± 0.21.
For the sequence UCCUAGCAAUAUUACGCCCG, the “self-splicing fitness (ln)” value (37 °C) was -2.38 ± 0.42.
Consider UGACAGCAAUAUUACGUAGU, for which the “self-splicing fitness (ln)” value was -3 ± 0.17 (30 °C) and -1.22 ± 0.14 (37 °C).
As to CACAAGCAAUAUUACGGAUA, the “self-splicing fitness (ln)” value reads like this: (30 °C) -1.79 ± 0.15; (37 °C) -2.4 ± 0.17.
As to CAGGAGCAAUAUUACGAGCU, the “self-splicing fitness (ln)” value is, setting by setting: (30 °C) -3.44 ± 0.47; (37 °C) -2.52 ± 0.41.
As for GGAUAGCAAUAUUACGAUUU, the “self-splicing fitness (ln)” value amounted to 0.317 ± 0.072 (30 °C) and 0.459 ± 0.09 (37 °C).
For GAGCAGCAAUAUUACGUGUG, in that order: -3.28 ± 0.12 and -0.789 ± 0.11.
In the same order, the values of CUAAAGCAAUAUUACGGAAC are -2.36 ± 0.19 and -1.42 ± 0.17.
As to UCUAAGCAAUAUUACGCACU, the “self-splicing fitness (ln)” value by setting is: (30 °C) -3.04 ± 0.24; (37 °C) -1.52 ± 0.17.
For GAGCAGCAAUAUUACGCAUU, in that order: -3.04 ± 0.2 and -2.23 ± 0.24.
Regarding CAUCAGCAAUAUUACGAGGU, the “self-splicing fitness (ln)” value reads like this: (30 °C) -3.46 ± 0.21; (37 °C) -2.86 ± 0.22.
Turning to CGCGAGCAAUAUUACGAACC, the “self-splicing fitness (ln)” value (37 °C) was -0.306 ± 0.33.
Regarding AGAUAGCAAUAUUACGGUUA, the “self-splicing fitness (ln)” value (30 °C) was -0.766 ± 0.11 and the “self-splicing fitness (ln)” value (37 °C) is -0.936 ± 0.1.
Turning to CUACAGCAAUAUUACGCUAU, the “self-splicing fitness (ln)” value runs as follows: (30 °C) -4.01 ± 0.19; (37 °C) -2.6 ± 0.18.
In the same order, the values of CUGAAGCAAUAUUACGUUUG are -1.52 ± 0.061 and -1.23 ± 0.099.
On to GUAGAGCAAUAUUACGAAAA, for which the “self-splicing fitness (ln)” value (37 °C) is -0.266 ± 0.44.
With GGUUAGCAAUAUUACGACUA, the “self-splicing fitness (ln)” value was found to be 0.135 ± 0.11 (30 °C) and 0.423 ± 0.14 (37 °C).
As for UAAUAGCAAUAUUACGGGGG, the “self-splicing fitness (ln)” value is -3.12 ± 0.19 (30 °C) and -3.37 ± 0.39 (37 °C).
For CUGUAGCAAUAUUACGUGCA, in that order: -2.56 ± 0.18 and -2.5 ± 0.16.
For CAUGAGCAAUAUUACGUAAA, in that order: -3.16 ± 0.15 and -3.43 ± 0.32.
For the sequence GAUUAGCAAUAUUACGCUGG, the “self-splicing fitness (ln)” value (30 °C) was -1.73 ± 0.14 and the “self-splicing fitness (ln)” value (37 °C) is -1.68 ± 0.22.
In the same order, the values of CGCGAGCAAUAUUACGUAAC are -2.76 ± 0.41 and -1.76 ± 0.27.
AUCCAGCAAUAUUACGGUAU: the “self-splicing fitness (ln)” value is -2.88 ± 0.13 (30 °C) and -1.19 ± 0.12 (37 °C).
For the sequence CGCUAGCAAUAUUACGAGGA, the “self-splicing fitness (ln)” value (30 °C) was -1.5 ± 0.18 and the “self-splicing fitness (ln)” value (37 °C) is -2.97 ± 0.29.
For AUGCAGCAAUAUUACGCCAG, in that order: -2.18 ± 0.13 and -1.23 ± 0.17.
For CUCGAGCAAUAUUACGACGG, in that order: -1.94 ± 0.15 and -0.385 ± 0.18.
Regarding CUAUAGCAAUAUUACGAUAU, the “self-splicing fitness (ln)” value (30 °C) is -2.53 ± 0.21 and the “self-splicing fitness (ln)” value (37 °C) was -2.45 ± 0.45.
In the same order, the values of AAACAGCAAUAUUACGAUUU are -0.279 ± 0.053 and 0.219 ± 0.071.
In the same order, the values of CCAAAGCAAUAUUACGCUCG are -1.97 ± 0.11 and -0.271 ± 0.12.
For UUUAAGCAAUAUUACGUGAC, in that order: -3.33 ± 0.21 and -2.11 ± 0.21.
On to AAUCAGCAAUAUUACGGCCC, for which the “self-splicing fitness (ln)” value is, setting by setting: (30 °C) -0.563 ± 0.18; (37 °C) 0.491 ± 0.2.
For GAACAGCAAUAUUACGCACG, in that order: -1.38 ± 0.18 and 0.123 ± 0.13.
For GGUUAGCAAUAUUACGUUAA, in that order: -2.32 ± 0.19 and -0.699 ± 0.16.
For the sequence UCCCAGCAAUAUUACGUCCC, the “self-splicing fitness (ln)” value runs as follows: (30 °C) -3.08 ± 0.25; (37 °C) -0.845 ± 0.26.
As to CCGAAGCAAUAUUACGCCCU, the “self-splicing fitness (ln)” value (37 °C) is -1.26 ± 0.46.
Still for that read-out and setting: the value for UGGGAGCAAUAUUACGUAGU was -1.82 ± 0.28.
Take GGAGAGCAAUAUUACGACGG: the “self-splicing fitness (ln)” value is -2.35 ± 0.29 (30 °C) and -2.17 ± 0.36 (37 °C).
In the case of ACUUAGCAAUAUUACGAUGC, the “self-splicing fitness (ln)” value runs as follows: (30 °C) -1.04 ± 0.091; (37 °C) -0.644 ± 0.11.
Consider ACGAAGCAAUAUUACGUGCU, for which the “self-splicing fitness (ln)” value is -2.96 ± 0.12 (30 °C) and -1.84 ± 0.14 (37 °C).
In the same order, the values of GGGCAGCAAUAUUACGAGGC are -2.26 ± 0.29 and -2.9 ± 0.37.
On to AGGGAGCAAUAUUACGCUAG, for which the “self-splicing fitness (ln)” value (30 °C) was -2.36 ± 0.31 and the “self-splicing fitness (ln)” value (37 °C) is -0.612 ± 0.41.
On to CUUUAGCAAUAUUACGUUGU, for which the “self-splicing fitness (ln)” value reads like this: (30 °C) -3.88 ± 0.17; (37 °C) -3.45 ± 0.21.
For the sequence ACUCAGCAAUAUUACGAGAA, the “self-splicing fitness (ln)” value runs as follows: (30 °C) -1.51 ± 0.21; (37 °C) -0.586 ± 0.2.
As for CAGGAGCAAUAUUACGGGAU, the “self-splicing fitness (ln)” value runs as follows: (30 °C) -3.55 ± 0.22; (37 °C) -2.28 ± 0.23.
In the same order, the values of CCGGAGCAAUAUUACGGAGU are -3.65 ± 0.2 and -3.41 ± 0.24.
For UCGAAGCAAUAUUACGUUAA, in that order: -2.99 ± 0.19 and -0.482 ± 0.14.
Consider AAUAAGCAAUAUUACGUAAC, for which the “self-splicing fitness (ln)” value (37 °C) is -1.85 ± 0.25.
As for CGACAGCAAUAUUACGAGGU, the “self-splicing fitness (ln)” value (30 °C) is -3.14 ± 0.33 and the “self-splicing fitness (ln)” value (37 °C) was -1.73 ± 0.2.
Consider AUGGAGCAAUAUUACGGGCG, for which the “self-splicing fitness (ln)” value by setting is: (30 °C) -3.21 ± 0.26; (37 °C) -2.63 ± 0.44.
For UGGAAGCAAUAUUACGGUGA, in that order: -1.41 ± 0.12 and -0.4 ± 0.13.
On to GACUAGCAAUAUUACGAUAC, for which the “self-splicing fitness (ln)” value is -1.31 ± 0.07 (30 °C) and -0.489 ± 0.092 (37 °C).
For GAAAAGCAAUAUUACGUCCA, in that order: -0.703 ± 0.064 and 0.0901 ± 0.089.
For ACUCAGCAAUAUUACGAGGU, in that order: -3.47 ± 0.18 and -1.68 ± 0.17.
With AGGGAGCAAUAUUACGUUCC, under “37 °C”, the “self-splicing fitness (ln)” value was -2.63 ± 0.48.
Consider UUAUAGCAAUAUUACGCGGG, for which the “self-splicing fitness (ln)” value (30 °C) is -1.86 ± 0.17 and the “self-splicing fitness (ln)” value (37 °C) is -1.92 ± 0.3.
Regarding UAACAGCAAUAUUACGUACA, the “self-splicing fitness (ln)” value reads like this: (30 °C) -0.576 ± 0.071; (37 °C) -0.319 ± 0.092.
Consider GAUUAGCAAUAUUACGACCC, for which the “self-splicing fitness (ln)” value (30 °C) is -0.91 ± 0.24 and the “self-splicing fitness (ln)” value (37 °C) was determined as 0.12 ± 0.24.
In the same order, the values of AACAAGCAAUAUUACGCACC are -0.717 ± 0.097 and -0.435 ± 0.14.
For the sequence AGGAAGCAAUAUUACGGCCG, the “self-splicing fitness (ln)” value (30 °C) was -0.634 ± 0.12 and the “self-splicing fitness (ln)” value (37 °C) is -0.462 ± 0.19.
With ACGCAGCAAUAUUACGAAUC, the “self-splicing fitness (ln)” value reads like this: (30 °C) -4.07 ± 0.34; (37 °C) -2.11 ± 0.22.
Turning to GGAUAGCAAUAUUACGAACU, the “self-splicing fitness (ln)” value by setting is: (30 °C) -0.708 ± 0.15; (37 °C) -0.573 ± 0.19.
For the sequence GAGUAGCAAUAUUACGCACG, the “self-splicing fitness (ln)” value (30 °C) is -1.77 ± 0.21.
In the case of UCCUAGCAAUAUUACGAGUG, the “self-splicing fitness (ln)” value (30 °C) is -2.1 ± 0.1 and the “self-splicing fitness (ln)” value (37 °C) was -0.96 ± 0.1.
For AUGGAGCAAUAUUACGUGGG, in that order: -3.61 ± 0.37 and -0.89 ± 0.27.
For GACCAGCAAUAUUACGGUUA, in that order: -0.367 ± 0.046 and -0.221 ± 0.056.
With UAUAAGCAAUAUUACGAUGU, the “self-splicing fitness (ln)” value (30 °C) is -2.49 ± 0.11 and the “self-splicing fitness (ln)” value (37 °C) is -1.71 ± 0.12.
In the same order, the values of CAGUAGCAAUAUUACGCCCA are -2.16 ± 0.26 and -0.476 ± 0.45.
